Experimental findings from patent US20110152173A1 (EMERGENT PRODUCT DEVELOPMENT SEATTLE, published 2011) are described below.

In experiment [1] the target is T1, TRU(XT6)-1042.
T1 construct: not trimmed; also called Xceptor TNFRSF1B::anti-HIL6
In words: ELISA: Xceptor captured on anti-human IgG-Fc, sIL-6R added, detected with anti-IL-6R-biotin. As for the experimental part: Added to each well of a 96-well plate was 100 μl goat anti-human IgG-Fc (ICN Pharmaceuticals, Costa Mesa, Calif.) from a 2 μg/ml solution in PBS, pH 7.2-7.4. The plates were covered, and incubated overnight at 4° C. After washing four times with PBS-T, 250 μl Blocking buffer (PBS-T with 3% BSA or 10% normal goat serum) was added to each well, the plate was covered, and incubated at room temperature for 2 hours (or at 4° C. overnight). […] After washing the plate five times with PBS-T, added in duplicate wells was 100 μl/well recombinant human sIL-6R(R&D Systems) from a […] solution in Working buffer, the plate was covered, and incubated at room temperature for about 1 to 2 hours. After washing the plate five times with PBS-T, added 100 μl/well anti-human IL-6R-biotin (R&D Systems) from a 100 ng/ml solution in Working buffer, the plate was covered, and incubated at room temperature for about 1 to 2 hours. After washing the plate five times with PBS-T, 100 μl per well horse radish peroxidase-conjugated streptavidin (Zymed, San Francisco, Calif.) diluted 1:4,000 in Working buffer was added, the plate was covered, and incubated at room temperature for 30 minutes. After washing the plate six times with PBS-T, 100 μl per well 3,3,5,5-tetramentylbenzidine (TMB) substrate solution (Pierce, Rockford, Ill.) was added for about 3 to 5 minutes and then the reaction was stopped with 50 μl Stop buffer (1N H₂SO₄) per well. The absorbance of each well was read at 450 nm.

Experiment [2] deals with T2, human RANKL (human, UniProt O14788 140-317, limits assumed).
T2 sequence (looked up): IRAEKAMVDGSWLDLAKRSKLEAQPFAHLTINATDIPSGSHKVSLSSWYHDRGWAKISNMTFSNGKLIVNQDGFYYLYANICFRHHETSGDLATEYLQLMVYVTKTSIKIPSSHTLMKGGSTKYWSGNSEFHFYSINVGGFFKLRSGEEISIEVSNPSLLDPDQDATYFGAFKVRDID
Put plainly: ELISA: plate-coated ligand, Xceptor detected with HRP anti-human IgG-Fc. As for the experimental part: (§1) Mouse and human ligands (R&D Systems, Minnesota, MN) were added to wells of a 96-well plate at a concentration of 1 μg/ml in PBS (100 μl/well). Plates were incubated at 4° C. overnight. After washing five times with PBS-T, 250 μl Blocking Buffer (PBS-T with 3% BSA) was added to each well, and the plate covered and incubated at room temperature (RT) for 2 hours. Serial three fold dilutions of xceptors were made in Working Buffer (PBS-T with 1% BSA) starting at 300 ng/ml. As a negative control, an irrelevant xceptor was used. The plate was incubated at RT for 1 hour. After washing five times with PBS-T, 100 μl per well of HRP-conjugated anti-human IgG-Fc (1:5000 in Working buffer) was added, the plate covered, and incubated at RT for 1 hour. After washing five times with PBS-T, 100 µl of Quant-Blu substrate (Pierce, Rockford, Ill.) was added to each well. The plate was incubated at RT for 10-30 minutes, and fluorescence measured at 325/420 nm.
On the technique in general: An ELISA detects its analyte on a solid surface through an enzyme-linked reagent.

Experiment [3] has as its target T3, mouse RANKL (mouse, UniProt O35235 158-316, limits assumed).
T3 construct: also called mRANKL
T3 sequence (looked up): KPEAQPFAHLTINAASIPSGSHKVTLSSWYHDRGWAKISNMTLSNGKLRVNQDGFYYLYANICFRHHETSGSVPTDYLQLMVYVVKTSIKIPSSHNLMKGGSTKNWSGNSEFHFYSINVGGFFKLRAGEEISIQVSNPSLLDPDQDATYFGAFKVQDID
The experiment is described as above. As for the experimental part:
as §1

For experiment [4], the target named is T4, human IL7 (human, UniProt P13232 26-177).
T4 sequence (looked up): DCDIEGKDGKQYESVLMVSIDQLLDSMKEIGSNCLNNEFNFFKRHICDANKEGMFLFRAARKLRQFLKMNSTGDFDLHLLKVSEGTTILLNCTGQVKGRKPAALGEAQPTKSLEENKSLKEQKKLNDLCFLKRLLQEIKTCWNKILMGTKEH
The description is as above. As for the experimental part:
as §1

B1: recombinant human sIL-6R (receptor)
chain: LAPRRCPAQEVARGVLTSLPGDSVTLTCPGVEPEDNATVHWVLRKPAAGSHPSRWAGMGRRLLLRSVQLHDSGNYSCYRAGRPAGTVHLLVDVPPEEPQLSCFRKSPLSNVVCEWGPRSTPSLTTKAVLLVRKFQNSPAEDFQEPCQYSQESQKFSCQLAVPEGDSSFYIVSMCVASSVGSKFSKTQTFQGCGILQPDPPANITVTAVARNPRWLSVTWQDPHSWNSSFYRLRFELRYRAERSKTFTTWMVKDLQHHCVIHDAWSGLRHVVQLRAQEEFGQGEWSEWSPEAMGTPWTESRSPPAENEVSTPMQALTTNKDDDNILFRDSANATSLPVQD
notes: Bought; also called human soluble IL6R
Regarding B1, in experiment [1], the binding result is given as “no binding”.

B2: Xceptor comprising a TNFRSF1B ectodomain and an OPG ectodomain (Fc fusion)
chain: LPAQVAFTPYAPEPGSTCRLREYYDQTAQMCCSKCSPGQHAKVFCTKTSDTVCDSCEDSTYTQLWNWVPECLSCGSRCSSDQVETQACTREQNRICTCRPGWYCALSKQEGCRLCAPLRKCRPGFGVARPGTETSDVVCKPCAPGTFSNTTSSTDICRPHQICNVVAIPGNASMDAVCTSTSPTRSMAPGAVHLPQPVSTRSQHTQPTPEPSTAPSTSFLLPMGPSPPAEGSTGDTGEPKSSDKTHTCPPCPAPEAAGAPSVFLFPPKPKDTLMISRTPEVTCVVVDVSHEDPEVKFNWYVDGVEVHNAKTKPREEQYNSTYRVVSVLTVLHQDWLNGKAYACAVSNKALPAPIEKTISKAKGQPREPQVYTLPPSRDELTKNQVSLTCLVKGFYPSDIAVEWESNGQPENNYKTTPPVLDSDGSFFLYSKLTVDKSRWQQGNVFSCSVMHEALHNHYTQKSLSLSPGQRHNNSSLNTGTQMAGHSPNSETFPPKYLHYDEETSHQLLCDKCPPGTYLKQHCTAKWKTVCAPCPDHYYTDSWHTSDECLYCSPVCKELQYVKQECNRTHNRVCECKEGRYLEIEFCLKHRSCPPGFGVVQAGTPERNTVCKRCPDGFFSNETSSKAPCRKHTNCSVFGLLLTQKGNATHDNICSGNSESTQKCGIDVTLCEEAFFRFAVPTKFTPNWLSVLVDNLPGTKVNAESVERIKRQHSSQEQTFQLLKLWKHQNKDQDIVKKIIQDIDLCENSVQRHIGHANLTFEQLRSLMESLPGKKVGAEDIEKTIKACKPSDQILKLLSLWRIKNGDQDTLKGLMHALKHSKTYHFPKTVTQSLKKTIRFLHSFTMYKLYQKLFLEMIGNQVQSVKISCL
notes: also called TNFR × OPG
On to B2, for which the binding result in experiment [2] and in experiment [3] was “binds” each time.

B3: Xceptor comprising a TNFRSF1B ectodomain and an IL7R ectodomain (Fc fusion)
chain: LPAQVAFTPYAPEPGSTCRLREYYDQTAQMCCSKCSPGQHAKVFCTKTSDTVCDSCEDSTYTQLWNWVPECLSCGSRCSSDQVETQACTREQNRICTCRPGWYCALSKQEGCRLCAPLRKCRPGFGVARPGTETSDVVCKPCAPGTFSNTTSSTDICRPHQICNVVAIPGNASMDAVCTSTSPTRSMAPGAVHLPQPVSTRSQHTQPTPEPSTAPSTSFLLPMGPSPPAEGSTGDTGEPKSSDKTHTCPPCPAPEAAGAPSVFLFPPKPKDTLMISRTPEVTCVVVDVSHEDPEVKFNWYVDGVEVHNAKTKPREEQYNSTYRVVSVLTVLHQDWLNGKAYACAVSNKALPAPIEKTISKAKGQPREPQVYTLPPSRDELTKNQVSLTCLVKGFYPSDIAVEWESNGQPENNYKTTPPVLDSDGSFFLYSKLTVDKSRWQQGNVFSCSVMHEALHNHYTQKSLSLSPGQRHNNSSLNTGTQMAGHSPNSESGYAQNGDLEDAELDDYSFSCYSQLEVNGSQHSLTCAFEDPDVNITNLEFEICGALVEVKCLNFRKLQEIYFIETKKFLLIGKSNICVKVGEKSLTCKKIDLTTIVKPEAPFDLSVVYREGANDFVVTFNTSHLQKKYVKVLMHDVAYRQEKDENKWTHVNLSSTKLTLLQRKLQPAAMYEIKVRSIPDHYFKGFWSEWSPSYYFRTPEINNSSGEMDP
notes: also called TNFR × IL7R
Regarding B3, in experiment [4], the binding result is “binds”.
